Data reported in the supplement of paper PMC11780869.

System: Bacillus subtilis
Experiment: cleaved RNA product abundance (RNA/gDNA barcode ratio) relative to median wild-type variant (ratio to wild type); higher = more accumulation of the downstream cleavage product
Details: cleavage site: cggR-gapA (positions -7 to +36 mutated)
Procedure, shortened: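 Cleaved product abundance is expressed as the RNA:gDNA barcode ratio per construct, scaled to the median construct carrying the unmutated site. The constructs were barcoded, mutagenized RNase Y cleavage-site windows in truncated aprE or tetM reporter mRNAs integrated into the B. subtilis chromosome. Cultures grew in LB at 37°C from OD600 0.0003 to 0.3 before cleaved RNA was gel-selected and barcode-sequenced.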

[1] = experiment (reporter, strain, medium): exp 2b: truncated aprE reporter, strain BJT200
[2] = experiment (reporter, strain, medium): exp 4a: truncated aprE reporter, strain BJT201 with 2% xylose (RNase J1 expressed)

Sequence	cleaved RNA product abundance [1]	cleaved RNA product abundance [2]	cleaved RNA product abundance (experiment (reporter, strain, medium): exp 6: tetM reporter, strain 168)
ACAGACGAAGGAGCCGCAAAGAAGTTATTAAGGAATGAATAATACCTCAATATAAATATCTCTCACTTATTTAAA	0.121	0.124	
ACAGACGAAGGAGCCGCAAAGAAGTTATTAAGGAATGAATAATCACTCAATATAAATATCTCTCACTTATTTAAA	0.111	0.124	
ACAGACGAAGGAGCCGCAAAGAAGTTATTAAGGAATGAATAATCCATCAATATAAATATCTCTCACTTATTTAAA	0.0915	0.124	
ACAGACGAAGGAGCCGCAAAGAAGTTATTAAGGAATGAATAATCCCACAATATAAATATCTCTCACTTATTTAAA		0.0935	
ACAGACGAAGGAGCCGCAAAGAAGTTATTAAGGAATGAATAATCCCCCAATATAAATATCTCTCACTTATTTAAA	0.122	0.115	
ACAGACGAAGGAGCCGCAAAGAAGTTATTAAGGAATGAATAATCCCGCAATATAAATATCTCTCACTTATTTAAA		0.0576	
ACAGACGAAGGAGCCGCAAAGAAGTTATTAAGGAATGAATAATCCCTAAATATAAATATCTCTCACTTATTTAAA	0.152	0.147	
ACAGACGAAGGAGCCGCAAAGAAGTTATTAAGGAATGAATAATCCCTCAAAATAAATATCTCTCACTTATTTAAA	0.0937	0.122	
ACAGACGAAGGAGCCGCAAAGAAGTTATTAAGGAATGAATAATCCCTCAACATAAATATCTCTCACTTATTTAAA		0.0941	
ACAGACGAAGGAGCCGCAAAGAAGTTATTAAGGAATGAATAATCCCTCAAGATAAATATCTCTCACTTATTTAAA		0.0834	
ACAGACGAAGGAGCCGCAAAGAAGTTATTAAGGAATGAATAATCCCTCAATAAAAATATCTCTCACTTATTTAAA	0.0974	0.0766	
ACAGACGAAGGAGCCGCAAAGAAGTTATTAAGGAATGAATAATCCCTCAATATAAAAAACTCTCACTTATTTAAA		0.0884	
ACAGACGAAGGAGCCGCAAAGAAGTTATTAAGGAATGAATAATCCCTCAATATAAAAATCTCTCACTTATTTAAA	0.127	0.161	
ACAGACGAAGGAGCCGCAAAGAAGTTATTAAGGAATGAATAATCCCTCAATATAAACATCTCTCACTTATTTAAA		0.121	
ACAGACGAAGGAGCCGCAAAGAAGTTATTAAGGAATGAATAATCCCTCAATATAAAGATCTCTCACTTATTTAAA		0.0766	
ACAGACGAAGGAGCCGCAAAGAAGTTATTAAGGAATGAATAATCCCTCAATATAAATAACTCTCACTTATTTAAA		0.21	
ACAGACGAAGGAGCCGCAAAGAAGTTATTAAGGAATGAATAATCCCTCAATATAAATACCTCTCACTTATTTAAA	0.0997		
ACAGACGAAGGAGCCGCAAAGAAGTTATTAAGGAATGAATAATCCCTCAATATAAATAGCTCTCACTTATTTAAA	0.108	0.095	
ACAGACGAAGGAGCCGCAAAGAAGTTATTAAGGAATGAATAATCCCTCAATATAAATATCTCTCACTTATTTAAA	0.109	0.132	0.126
ACAGACGAAGGAGCCGCAAAGAAGTTATTAAGGAATGAATAATCCCTCAATATAAATATTTCTCACTTATTTAAA		0.136	
ACAGACGAAGGAGCCGCAAAGAAGTTATTAAGGAATGAATAATCCCTCAATATAAATTTCTCTCACTTATTTAAA	0.114	0.142	
ACAGACGAAGGAGCCGCAAAGAAGTTATTAAGGAATGAATAATCCCTCAATATAAGTATCTCTCACTTATTTAAA		0.0312	

Sequence	cleaved RNA product abundance [1]	cleaved RNA product abundance [2]	cleaved RNA product abundance (experiment (reporter, strain, medium): exp 6: tetM reporter, strain 168)
ACAGACGAAGGAGCCGCAAAGAAGTTATTAAGGAATGAATAATCCCTCAATATAATTATCTCTCACTTATTTAAA		0.117	
ACAGACGAAGGAGCCGCAAAGAAGTTATTAAGGAATGAATAATCCCTCAATATACATATCTCTCACTTATTTAAA		0.118	
ACAGACGAAGGAGCCGCAAAGAAGTTATTAAGGAATGAATAATCCCTCAATATAGATATCTCTCACTTATTTAAA		0.101	
ACAGACGAAGGAGCCGCAAAGAAGTTATTAAGGAATGAATAATCCCTCAATATATATATCTCTCACTTATTTAAA	0.0862	0.149	
ACAGACGAAGGAGCCGCAAAGAAGTTATTAAGGAATGAATAATCCCTCAATATCAATATCTCTCACTTATTTAAA		0.0389	
ACAGACGAAGGAGCCGCAAAGAAGTTATTAAGGAATGAATAATCCCTCAATCTAAATATCTCTCACTTATTTAAA		0.0695	
ACAGACGAAGGAGCCGCAAAGAAGTTATTAAGGAATGAATAATCCCTCAATTTAAATATCTCTCACTTATTTAAA	0.0901	0.0591	
ACAGACGAAGGAGCCGCAAAGAAGTTATTAAGGAATGAATAATCCCTCACTATAAATATCTCTCACTTATTTAAA	0.0964		
ACAGACGAAGGAGCCGCAAAGAAGTTATTAAGGAATGAATAATCCCTCAGTATAAATATCTCTCACTTATTTAAA		0.15	
ACAGACGAAGGAGCCGCAAAGAAGTTATTAAGGAATGAATAATCCCTCATTATAAATATCTCTCACTTATTTAAA	0.102	0.0579	
ACAGACGAAGGAGCCGCAAAGAAGTTATTAAGGAATGAATAATCCCTCCATATAAATATCTCTCACTTATTTAAA		0.0857	
ACAGACGAAGGAGCCGCAAAGAAGTTATTAAGGAATGAATAATCCCTCTATATAAATATCTCTCACTTATTTAAA	0.12	0.119	
ACAGACGAAGGAGCCGCAAAGAAGTTATTAAGGAATGAATAATCCCTGAATATAAATATCTCTCACTTATTTAAA		0.0984	
ACAGACGAAGGAGCCGCAAAGAAGTTATTAAGGAATGAATAATCCCTTAATATAAATATCTCTCACTTATTTAAA	0.68	0.588	
ACAGACGAAGGAGCCGCAAAGAAGTTATTAAGGAATGAATAATCCGTCAATATAAATATCTCTCACTTATTTAAA	0.0733	0.0653	
ACAGACGAAGGAGCCGCAAAGAAGTTATTAAGGAATGAATAATCCTTCAATATAAATATCTCTCACTTATTTAAA	0.148	0.265	
ACAGACGAAGGAGCCGCAAAGAAGTTATTAAGGAATGAATAATCGCTCAATATAAATATCTCTCACTTATTTAAA		0.0645	
ACAGACGAAGGAGCCGCAAAGAAGTTATTAAGGAATGAATAATCTCTCAATATAAATATCTCTCACTTATTTAAA	0.0991	0.155	
ACAGACGAAGGAGCCGCAAAGAAGTTATTAAGGAATGAATAATGCCTCAATATAAATATCTCTCACTTATTTAAA		0.0706	
ACAGACGAAGGAGCCGCAAAGAAGTTATTAAGGAATGAATAATTCCTCAATATAAATATCTCTCACTTATTTAAA	0.756	0.872	
ACAGACGAAGGAGCCGCAAAGAAGTTATTAAGGAATGAATACTCCCTCAATATAAATATCTCTCACTTATTTAAA	0.116	0.106	
ACAGACGAAGGAGCCGCAAAGAAGTTATTAAGGAATGAATAGTCCCTCAATATAAATATCTCTCACTTATTTAAA	0.101	0.114	
